Laboratory results published in patent publication US20210238302A1, “HIGH AFFINITY MONOCLONAL ANTIBODIES (MABS) AGAINST CELL SURFACE EXPRESSED HUMAN CARBONIC ANHYDRASE IX (HCA-IX), AND USES THEREOF” (NATIONAL RESEARCH COUNCIL OF CANADA, priority 2018, published 2021).
Where “and” joins values, the source holds several entries; their conditions need not be identical. Equal entries are not always repeated. Entries after “also recorded” stand apart in the source; their conditions may differ. Where two headings read alike, the source gives them in different places.

Key:
[1] = molecular target: T1, rhCA-IX ECD (Homo sapiens, UniProt Q16790); assay: Reverse Phase Protein Array (RPPA); type: binding
[2] = molecular target: T1, rhCA-IX ECD; type: biochemical
Source text: To determine whether these mAbs can inhibit the enzyme activity of the rhCA-IX ECD protein, we used an activity assay in which 4-Nitrophenyl acetate (4-NPA) is used as a substrate. […]

[3] = system: hCA-IX ECD fragments; assay: Epitope mapping by Yeast Surface Display (whole yeast cell ELISA); type: binding, human; set-up: key: −: no binding; +: binding
Procedure: Yeast Surface Display (YSD; developed by the Wittrup lab) is used for presenting properly folded (ensured by the “quality-control” processes of the secretory pathway of the yeast) antigen fragments on the yeast cell surface through covalent linkage (FIG. 15A). […] The epitope mapping of the mAbs was performed using a whole yeast cell ELISA protocol. […] These experiments were performed on native and denatured yeast cells, where in both cases binding of each mAb was normalized to the anti-MYC signal. The ratio of each normalized anti-CA-IX mAb signal of native versus denatured hCA-IX peptide is thus indicative of the conformational nature of the mAb binding epitope. In the native hCA-IX experiments the commercial M75 mAb was used as a positive control; the epitope of this mAb is known (Zavada et al., 2000) and is located in hCA-IX's PG domain.

[4] = Cell viability; type: cell-based
[5] = molecular target: rhCA-IX ECD Dimer (Homo sapiens, UniProt Q16790)
Procedure: (§1) SPR experiments were carried out by capturing the CA-IX mAbs from the CM with an anti-mouse Fc antibody immobilized on the chip surface, after which rhCA-IX EDC mixture, or rhCA-IX EDC monomer or dimer were flowed over the mAb surface.

[6] = molecular target: rhCA-IX ECD Monomer (Homo sapiens, UniProt Q16790)
Procedure: as §1

[7] = molecular target: T2, low hCA-IX expressing SK-RC-59 cells (Homo sapiens, UniProt Q16790); assay: Flow cytometry binding, SK-RC-59 cells; type: cell-based; settings: SK-RC-59 (low hCA-IX)
T2 construct: the non-transfected human renal tumor SK-RC-59 and SK-RC-52 cell lines; endogenous in cells; host or cells: SK-RC-52 (high hCA-IX), SK-RC-59 (low hCA-IX)
Procedure: These cell lines have been used in the literature for the screening of scFv Abs for binding to hCA-IX (Xu et al., 2011). Western blot analysis of these cell lines under reducing and non-reducing conditions (FIG. 8) confirmed the expression of hCA-IX in the SK-RC-52 cell line (indicated with a star), whereas no hCA-IX could be detected in the SK-RC-59 cell line. Equal protein quantities were loaded (BCA protein assay) which was confirmed by an actin blot.
Flow cytometry: mAbs were evaluated in a flow cytometry experiment using the SK-RC-59 and SK-RC-52 cell lines. As controls a commercially available mAb (R&D, Clone #303123, Cat #MAB2188) and the M75 mAb (generously supplied by Dr E Oosterwijk, Radboud University Nijmegen, The Netherlands) were used. Experiments were plotted per cell line (FIG. 9) using a double Y-axis (left Y-axis, % live cells, closed squares; right Y-axis, mean fluorescence intensity of the live population, closed circles; X-axis, experimental groups).

[8] = molecular target: rmCA-IX (Mus musculus, UniProt Q8VHB5); assay: Cross-reactivity determination by SPR; type: binding, murine
Source text: (§2) hCA-IX is one of several hCAs that have been identified to date (see FIG. 1). […] In contrast to hCA-IX the expression pattern of hCA-XII is much more widespread and not as cancer specific as hCA-IX.

[9] = molecular target: rhCA-IV (Homo sapiens, UniProt P22748); assay: Cross-reactivity determination by SPR; type: binding
Source text: as §2

[10] = molecular target: rhCA-XIV (Homo sapiens, UniProt Q9ULX7); assay: Cross-reactivity determination by SPR; type: binding
Source text: as §2

[11] = molecular target: rhCA-XII (Homo sapiens, UniProt O43570); assay: Cross-reactivity determination by SPR; type: binding
Source text: as §2

[12] = molecular target: rhCA-IX ECD monomer or dimer (Homo sapiens, UniProt Q16790)
[13] = Differential Scanning Calorimetry (DSC) thermostability; type: physicochemical; settings: DSC 25° C. to 100° C., scan rate 90° C./hour; versus Cetuximab
Procedure: (scan rate 90° C./hour). The therapeutic anti-EGFR Ab Cetuximab, which has been proven to be a very stable under these conditions, was used as control.

[14] = molecular target: T1, rhCA-IX ECD; assay: Western blot of non-purified mAbs on purified CA-IX ECD antigen; type: binding; settings: undiluted CM; non-reducing and reducing conditions
Source text: Anti-hCA-IX mAb 10F2 is shown as a positive control.

[15] = system: SK-RC-52 cells; assay: Internalization of pHAb dye labeled mAbs; type: cell-based, human; settings: antibody-pHAb dye conjugates, 37° C., 24 h
Source text: In addition, we also evaluated the internalization potential of these mAbs with the thought of using these enzyme-inhibiting mAbs to bring a toxic pay-load into cancer cells. For this, both mAbs, in addition to a negative control IgG, were labeled with a pH sensitive reactive dye (pHAb; Promega). Upon receptor-mediated internalization, these antibody-pHAb Dye conjugates traffick to the endosome and lysosomal vesicles where pH is acidic, causing the pHAb dye to fluoresce. CA-IX expressing SK-RC-52 expressing cells were incubated with these antibody-pHAb dye conjugates (10 μg/mL) and incubated at 37° C. (5% CO2, humidified environment) for 24 h (FIG. 18A) or coated with various concentrations of the conjugates for 30 min at 4° C., washed, and then transferred to 37° C. (5% CO2, humidified environment) for 24 h (FIG. 18B).

[16] = hybridoma-derived mAb, 1 μM rhCA-IX ECD dimer, mAb:rhCA-IX ECD 4:1
[17] = hybridoma-derived mAb, rhCA-IX ECD dimer
[18] = recombinant mAbs, rhCA-IX ECD monomer

rhCA-XIV, sequence (Q9ULX7 16-337): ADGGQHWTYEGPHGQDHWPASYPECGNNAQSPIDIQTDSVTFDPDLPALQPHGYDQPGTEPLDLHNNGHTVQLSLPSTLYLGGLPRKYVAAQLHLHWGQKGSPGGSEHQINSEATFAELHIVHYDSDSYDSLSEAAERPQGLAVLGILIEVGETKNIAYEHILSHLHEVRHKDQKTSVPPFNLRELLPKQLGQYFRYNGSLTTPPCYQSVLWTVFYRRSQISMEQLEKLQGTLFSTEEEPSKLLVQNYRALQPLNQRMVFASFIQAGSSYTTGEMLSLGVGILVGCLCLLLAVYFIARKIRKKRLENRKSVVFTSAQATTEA
rhCA-XII, sequence (O43570 25-354): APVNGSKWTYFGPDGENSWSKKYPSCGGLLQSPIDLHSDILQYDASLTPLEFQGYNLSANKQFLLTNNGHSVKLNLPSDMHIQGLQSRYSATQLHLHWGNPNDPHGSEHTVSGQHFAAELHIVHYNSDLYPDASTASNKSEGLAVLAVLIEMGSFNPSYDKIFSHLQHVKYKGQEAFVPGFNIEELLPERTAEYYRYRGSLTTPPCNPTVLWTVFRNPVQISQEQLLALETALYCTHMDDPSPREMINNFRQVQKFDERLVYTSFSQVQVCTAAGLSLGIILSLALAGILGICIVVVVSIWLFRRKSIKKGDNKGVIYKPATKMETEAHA
rhCA-IV, sequence (P22748 19-284): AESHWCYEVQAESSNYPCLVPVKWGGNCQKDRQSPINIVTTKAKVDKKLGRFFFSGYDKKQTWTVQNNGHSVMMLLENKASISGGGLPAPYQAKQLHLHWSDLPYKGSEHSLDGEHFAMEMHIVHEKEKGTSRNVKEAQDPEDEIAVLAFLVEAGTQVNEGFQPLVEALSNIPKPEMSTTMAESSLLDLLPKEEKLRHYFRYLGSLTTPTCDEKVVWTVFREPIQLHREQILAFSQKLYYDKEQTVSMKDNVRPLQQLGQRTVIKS
rmCA-IX, sequence (Q8VHB5 32-437): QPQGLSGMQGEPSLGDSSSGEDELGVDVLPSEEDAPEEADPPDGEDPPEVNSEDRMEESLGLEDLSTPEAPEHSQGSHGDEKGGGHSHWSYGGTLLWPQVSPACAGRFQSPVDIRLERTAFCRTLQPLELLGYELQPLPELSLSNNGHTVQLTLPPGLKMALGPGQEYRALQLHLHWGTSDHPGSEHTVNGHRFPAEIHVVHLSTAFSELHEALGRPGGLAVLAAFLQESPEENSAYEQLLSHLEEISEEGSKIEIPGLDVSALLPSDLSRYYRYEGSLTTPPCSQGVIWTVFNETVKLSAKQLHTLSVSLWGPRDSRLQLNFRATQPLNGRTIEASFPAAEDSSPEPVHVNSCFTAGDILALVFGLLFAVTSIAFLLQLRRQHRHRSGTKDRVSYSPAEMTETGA

B1: 9B6: mouse IgG2b monoclonal antibody inhibiting hCA-IX catalytic activity; SEQ ID NO.14 and 18; hybridoma-derived and recombinant (SEQ ID NO. 24 and 25) (antibody, V domains shown)
VL: DIVLTQSPSSLAVSLGQRATISCKASQSVDYDGNSYMNWFQQKPGQPPKLLIYEASSLESGIPARISGSGSGTDFTLNIHPVEEEDAATYYCQQSYEGPYTFGGGTKLEIK
VH: QVQLQQPGAELVKPGASVKLSCKASGYIFTTKWINWVKQRPGQGLEWIGNIYPGSSNTYYNEKFKNKATLTVDKSSNTAHLQLSSLTSEDSAVYYCARGIANWGQGTPVTVSA
[1]
  Antigen in protein mixture Denatured (D): 1.74
  Antigen in protein mixture Native (C): 5.79
  mAb binding specificity: rhCA-IX
  preference for native or denatured rhCA-IX ECD: slightly increased preference for the denatured protein
[1]; native/denatured purified antigen
  Ratio (A)/(B) (Possibly epitope related): 0.68
[1]; non-purified hybridoma mAb
  Purified Antigen Denatured (B): 21.55
  Purified Antigen Native (A): 14.75
[2]
  % rhCA-IX ECD Inhibition: 42.59%
[2]; [16]
  % rhCA-IX ECD Activity: 59.25%
  % rhCA-IX ECD Inhibition: 40% and 40.75%
[2]; hybridoma-derived mAb, mAb:rhCA-IX ECD 4:1
  Comments: Inhibition
[2]; recombinant mAbs and Fabs, 0.5 μM each, rhCA-IX ECD 0.5 μM dimer, 4-NPA
  rhCA-IX ECD enzyme activity inhibition: 40% and 28%
[2]; replicate 1 of % rhCA-IX ECD activity, hybridoma-derived mAb, mAb:rhCA-IX ECD 4:1
  Data1: 59.25
[2]; replicate 2 of % rhCA-IX ECD activity, hybridoma-derived mAb, mAb:rhCA-IX ECD 4:1
  Data2: 55.57
[3]; Denatured CA-IX protein, EBY100, No-plasmid, Strain Ctrl, Neg Ctrl (PNL6 series)
  Anti-CA-IX Ab binding intensity (normalized on CA-IX_MYC expression on cells): −
[3]; Denatured CA-IX protein, EBY100, No-plasmid, Strain Ctrl, Neg Ctrl (PNL200 series)
  Anti-CA-IX Ab binding intensity (normalized on CA-IX_MYC expression on cells): −
[3]; Denatured CA-IX protein, clone 1A, PNL6, Aga2-HA-CA9-MYC, fragment 1, aa 52-111, PG
  Anti-CA-IX Ab binding intensity (normalized on CA-IX_MYC expression on cells): −
[3]; Denatured CA-IX protein, clone 2B, PNL6, Aga2-HA-CA9-MYC, fragment 2, aa 38-136, +PG+
  Anti-CA-IX Ab binding intensity (normalized on CA-IX_MYC expression on cells): −
[3]; Denatured CA-IX protein, clone 3A, PNL6, Aga2-HA-CA9-MYC, fragment 3, aa 1-136, SP+PG+
  Anti-CA-IX Ab binding intensity (normalized on CA-IX_MYC expression on cells): −
[3]; Denatured CA-IX protein, clone 11B, PNL6, Aga2-HA-X-MYC, Plasmid Ctrl, Neg Ctrl
  Anti-CA-IX Ab binding intensity (normalized on CA-IX_MYC expression on cells): −
[3]; Denatured CA-IX protein, clone 12B, PNL200, CA9-Aga2-MYC, fragment 1, aa 52-111, PG
  Anti-CA-IX Ab binding intensity (normalized on CA-IX_MYC expression on cells): −
[3]; Denatured CA-IX protein, clone 13A, PNL200, CA9-Aga2-MYC, fragment 2, aa 38-136, +PG+
  Anti-CA-IX Ab binding intensity (normalized on CA-IX_MYC expression on cells): −
[3]; Denatured CA-IX protein, clone 14A, PNL200, CA9-Aga2-MYC, fragment 3, aa 1-136, SP+PG+
  Anti-CA-IX Ab binding intensity (normalized on CA-IX_MYC expression on cells): −
[3]; Denatured CA-IX protein, clone 22A, PNL200, X-Aga2-MYC, Plasmid Ctrl, Neg Ctrl
  Anti-CA-IX Ab binding intensity (normalized on CA-IX_MYC expression on cells): −
[3]; Native CA-IX protein, EBY100, No-plasmid, Strain Ctrl, Neg Ctrl (PNL6 series)
  Anti-CA-IX Ab binding intensity (normalized on CA-IX_MYC expression on cells): −
[3]; Native CA-IX protein, EBY100, No-plasmid, Strain Ctrl, Neg Ctrl (PNL200 series)
  Anti-CA-IX Ab binding intensity (normalized on CA-IX_MYC expression on cells): −
[3]; Native CA-IX protein, clone 1A, PNL6, Aga2-HA-CA9-MYC, fragment 1, aa 52-111, PG
  Anti-CA-IX Ab binding intensity (normalized on CA-IX_MYC expression on cells): −
[3]; Native CA-IX protein, clone 2B, PNL6, Aga2-HA-CA9-MYC, fragment 2, aa 38-136, +PG+
  Anti-CA-IX Ab binding intensity (normalized on CA-IX_MYC expression on cells): −
[3]; Native CA-IX protein, clone 3A, PNL6, Aga2-HA-CA9-MYC, fragment 3, aa 1-136, SP+PG+
  Anti-CA-IX Ab binding intensity (normalized on CA-IX_MYC expression on cells): −
[3]; Native CA-IX protein, clone 11B, PNL6, Aga2-HA-X-MYC, Plasmid Ctrl, Neg Ctrl
  Anti-CA-IX Ab binding intensity (normalized on CA-IX_MYC expression on cells): −
[3]; Native CA-IX protein, clone 12B, PNL200, CA9-Aga2-MYC, fragment 1, aa 52-111, PG
  Anti-CA-IX Ab binding intensity (normalized on CA-IX_MYC expression on cells): −
[3]; Native CA-IX protein, clone 13A, PNL200, CA9-Aga2-MYC, fragment 2, aa 38-136, +PG+
  Anti-CA-IX Ab binding intensity (normalized on CA-IX_MYC expression on cells): −
[3]; Native CA-IX protein, clone 14A, PNL200, CA9-Aga2-MYC, fragment 3, aa 1-136, SP+PG+
  Anti-CA-IX Ab binding intensity (normalized on CA-IX_MYC expression on cells): −
[3]; Native CA-IX protein, clone 22A, PNL200, X-Aga2-MYC, Plasmid Ctrl, Neg Ctrl
  Anti-CA-IX Ab binding intensity (normalized on CA-IX_MYC expression on cells): −
[4]
  reduction of cell viability: active in reducing cell viability
[5]; Hybridoma-derived, rhCA-IX ECD dimer
  off rate: extremely slow
[5]; [17]
  ka: 1.33E+05
  kd: 4.17E−18
[5]; recombinant and hybridoma-derived mAb, rhCA-IX ECD dimer (FIG. 12)
  binding kinetics: poor
[6]; Hybridoma-derived
  off rate: slow
[6]; Recombinantly expressed, mIgG2b
  off rate: slow
[7]
  binding to cell surface hCA-IX by flow cytometry: virtually no binding was detected
[8]
  SPR binding (cross-reactivity): no interaction was detected
[9]
  SPR binding (cross-reactivity): no interaction was detected
[10]
  SPR binding (cross-reactivity): no interaction was detected
[11]
  SPR binding (cross-reactivity): no interaction was detected
[12]; hybridoma-derived mAbs, rhCA-IX ECD monomer or dimer
  competition between 4A2 and 9B6 for binding: do not compete
[12]; [18]
  competition between 4A2 and 9B6 for binding: do not compete for binding to hCA-IX
  competition with cG250 for binding to hCA-IX: neither the 9B6 nor the 4A2 mAb competes with cG250
[13]
  thermostability: slightly less stable than Cetuximab
[14]
  Western blot binding to rhCA-IX ECD: do not detect rhCA-IX ECD; also recorded: failed to bind
[15]
  internalization: internalize in a CA-IX specific manner
